The assay deals with GP sera of Examples 8 to 11 (anti sera from two GP patients). The assay is described as follows: inhibition ELISA: peptide preincubated with GP antibodies for 12 hours, then plates coated with α3 NC1 bovine monomer. (In an ELISA, binding on a coated surface is turned into a signal by an enzyme label.)

The source of these data is patent US6277558.

Ends that are not written are not given here.

B1: α3 carboxy terminal peptide (12 Mer synthetic peptide of human α3(IV) NC1) (peptide)
peptide: ISRCQVCMKKRH
modifications: also: the two cysteines blocked, group not given here
B1 displayed a percent inhibition at saturation of 60%.
